Data taken from the RNAGym collection of RNA variant scans (doi:10.7554/elife.90254).

B1: LINE1-full (parent)
chain: UACGUAGGUGGUUUUCCCCUGAUAGUGCUAAGGGGGCCUGGAAGUUUGGACUGGGCAGAGCUCAACACAGCGUGGCAAAGUGGCUGUGGCUAGACUGCCUCUCUGGAUUCCUCGUCACUCAGCAGGGCAUCUCUGAGAGAAAUGCC

Variants of: B1
Assay: self-cleavage, relative activity (ratio to wild type); higher = more cleavage; in vitro, sequencing; the parent is a self-cleaving ribozyme

Variant	self-cleavage
C56U C71U	0.07
G53U A141G	1.58
G54A A65G	0.02
G54A A65U	0.1
G55A A107G	0.22
G55U A121G	0.37
U52A A77U	1.03
G53U G60U	0.03
G53C A65U	0.2
G53A	1.32
G53U	1.25
G53C	1.13
G55C C120U	0.27
G53A A57G	0.73
G54A U143A	0.45
U52G	1.45
U52C	1.24
U52A U91A	0.63
G54U U108C	0.36
C56A U100C	0.1
G54U A78G	0.44
G54U A65G	0.03
G54A A64G	0.13
G53U A140C	0.8

Variant	self-cleavage
G55U A117U	0.46
G55U A117G	0.3
G54C U96C	0.03
A57C U130A	0.03
U52G A94U	0.42
G54A U109A	0.35
U52C U132C	1.75
G55U U132C	0.16
G55A A94G	0.2
G54A U115A	0.64
U52A G88A	0.12
U52C U96A	0.1
G53U C99U	0.13
C56U U112A	0.1
G54A A121G	0.51
G54A A121C	1.05
G55C U115C	0.26
A57C A121U	0.03
G53A U100C	1.09
G53A A129G	1.4
U52A G114C	1.34
G53U A78G	0.71
G54U A138U	1.01
G54U U100C	0.22

Variant	self-cleavage
U52C U102A	0.87
U52C U102C	1.14
G54A G83A	0.52
G54A U100A	0.16
G54A U100C	0.31
G54U G114U	0.74
U52C C84G	0
G53U U143C	1.14
G55A A138G	0.51
G55A U112C	0.14
G53U A142G	1.2
U52A U119C	1.48
U52A U119A	1.47
U52G U143C	1.99
U52G U143A	1.32
U52A A141G	1.11
U52A G72A	1.55
U52G U102C	1.87
U52C U115A	1.34
G54U A136G	1
U52A G55A	0.3
G54U A121G	0.97
G54A G105U	0.7
G53U U85A	0.11

Variant	self-cleavage
U52A A124G	1.07
U52A A124U	1.15
U52A U143A	1.37
G55A C63U	0.13
U52A U96C	0.15
U52A U96A	0.07
U52C G114A	1.24
U52C U112C	1.5
G53A A107G	1.28
G53U A64U	0.45
U52C C98A	0.1
G54U U62A	0.02
U52C U81C	1.08
U52C U81G	1.31
U52C G139A	0.78
G55C C76A	0.1
G54U C90A	0.06
G55C A107U	0.08
G54U U104C	1.28
G53U U62C	0.08
U52C A140U	1.15
U52C A140G	1.1
G53U A65C	0.07
G54U U143C	1.07

Variant	self-cleavage
C56U A141G	0.14
U52C C56U	0.11
C56U A142U	0.23
A57C U119A	0.06
G55U U115A	0.14
G55U U115C	0.4
U52C G88A	0.04
C56U U134G	0.28
U52G U87G	0.59
G55U G144A	0.43
U52A U87A	0.08
U52A U87G	0.29
G54A G75C	0.33
G54A C84U	0.08
U52A A69U	0.08
C56U U100C	0.44
U52C G53A	0.6
U52A G54C	0.43
U52A A136G	1.4
G54C U143A	1.3
G55C A141G	0.55
U52A A64G	0.31
U52C G60A	0.03
G53A U81C	0.67

Variant	self-cleavage
G54U U81A	0.39
G53U A107G	1.08
A57C A69U	0.08
G53A A64G	0.12
C56U U85A	0.04
G53A A77G	1.82
G54C A117U	1.23
G54U C71U	0.16
C56U A67G	0.07
G55U U134C	0.29
U52C A94G	0.24
U52C U62A	0.08
U52C U62C	0.03
C56U A59U	0.11
G53U U112C	1.31
G55A A140G	0.17
A57C A136G	0.05
C56A U104C	0.1
C56U U115C	0.19
U52G A79G	1.31
C56U A124G	0.08
U52A A92U	0.86
U52G A136G	0.88
U52G A136U	1.1

Variant	self-cleavage
C56G U91C	0.05
U52C A92G	0.1
G53A A67G	0.38
U52A G80C	0.98
U52C U130C	1.84
U52C U130A	1.04
U52C U119A	1.16
U52A C113U	1.41
G54A A117G	0.52
U52C A121G	1.41
U52C A121C	1.92
U52C G105A	1.17
U52A G82U	1.26
U52A G82A	1.63
U52A U100C	1.96
G55A A121G	0.26
U52A G75U	0.45
A57G A67U	0.06
G55A A57G	0.15
G54A A69G	0.18
U52G U73A	1.74
C56U A136U	0.13
G54A A92G	0.04
U52A A121U	1.03

Variant	self-cleavage
U52C U143A	1.84
U52A A129U	1.73
G54A G88A	0.08
U52A C128U	1.38
G54U C84U	0.07
U52A C146A	1.16
U52C U87C	0.11
U52G U96C	0.55
U52G G144A	1.34
U52C U91C	0.67
U52C U91A	0.49
A57C A92U	0
U52A C95A	0.09
G54A A67G	0.12
G53A U109C	0.27
G53U G70C	0.14
U52A C145U	1.6
U52A A117U	1.35
U52A A117G	1.43
A57C A138G	0.22
G54U U96C	0.07
C56A U143A	0.09
G54A U87C	0.1
G54A U87A	0.06

Variant	self-cleavage
G54C C61U	0.05
U52A U130G	1.24
G54U A69G	0.17
G54A U62C	0.07
G54A U62A	0.01
A57G A65U	0.15
A57G A65G	0.1
U52A U81C	1.51
U52A U81G	1.63
G54A A136U	0.67
G54A A136G	0.62
G54A G82A	0.9
A57C G72U	0.03
U52A C116U	1.18
G55A U81A	0.08
G53A U134G	0.56
G53A U102G	0.68
G53A U102A	1.3
C56U A77G	0.16
U52C A129G	1.23
U52A U112A	0.8
U52C C71U	0.7
G54A A78U	0.79
U52C C113A	0.99

Variant	self-cleavage
U52C A67U	0.16
U52C U104A	1.02
U52C U104C	1.1
U52A U85C	0.2
U52C U109A	1.6
U52C U109C	0.69
A57C U132G	0
A57C U132A	0
G53U U108C	1.56
U52C A65U	0.19
G53U A77G	2.05
G54A U119C	1.35
G53U U104C	2.38
G55A U134C	0.23
G54A U132C	0.53
C56A U73C	0.05
U52A G106C	1.84
U52G C118U	2.3
G54U G105A	0.87
U52C A78U	1.56
G53A U115C	1.07
G53A U115A	1.31
A57C A77U	0.08
U52C A59U	0.72

Variant	self-cleavage
U52A U102C	0.88
G54C U81A	0.4
U52A A140U	1.57
U52A U62A	0.05
U52A U62C	0.04
G53U U134A	0.68
U52G G70A	0.42
A57C	0.08
A57G	0.88
U52C G89A	0.05
G53A C61U	0.03
G55A C95U	0.11
U52C G54A	0.74
C56U U87C	0.11
U52C C95G	0.09
C56A U96C	0.05
G55U A59G	0.05
G54U U119C	1.34
G53C A136G	0.36
G53A G135U	0.82
C56G A67G	0
C56U A129G	0.22
C56A A141G	0.07
C56U G86A	0.04

Variant	self-cleavage
G53A A69U	0.07
U52A G126C	1.81
A57C U104A	0.18
U52A A78U	2.37
U52A A78G	1.43
G53A U108C	1.97
G53A G126U	1.31
G53A G126A	1.23
A57C G86A	0.04
U52G U115C	1.71
C56A A121G	0.03
C56U C111U	0.19
U52C A69U	0.1
U52C A69G	0.11
U52A C110U	1.23
U52A C110G	1.15
U52A C110A	1.66
G53U U119A	1.33
U52G A59G	0.34
G53A A136G	1.71
U52C C116U	1.39
U52A U115A	1.34
U52A U115C	1.42
G53A C128U	1.34

Variant	self-cleavage
U52C A107G	1
U52A C98U	0.12
G55U U85A	0.03
U52C C99A	0.27
U52C C99U	0.64
G54U A92G	0.08
G54A U102C	0.33
U52G G80C	0.97
U52A A79U	2.26
U52C C101G	1.31
U52C U134C	1.01
U52C U134G	2.76
G53A U96A	0.06
U52G U85C	0.15
U52C A64G	0.34
U52C A64U	0.45
G55A A124U	0.19
U52C A138C	1.62
G55C U108C	0.18
G53A A124G	0.77
G54A A129U	0.4
G54A A129G	0.76
G53U U130A	1.53
A57C U102C	0.1

Variant	self-cleavage
G54A A77G	1.02
G54A A141G	0.8
G53A U87C	0.18
G55C A77U	0.06
G53U U81A	1.52
G55A C111U	0.3
C56G A92U	0.04
G55A U104C	1.02
C56U A138G	0.31
C56U A138U	0.1
U52C A77G	2.8
U52C A77U	1.07
U52A U73A	1.63
U52A U73C	2.24
G55C A117C	0.42
C56U A117C	0.5
U52C U85C	0.31
U52C U85A	0.13
G53U U115C	1.91
U52G A57G	0.82
U52G A69U	0.1
U52C G83A	0.53
